The record followed here is patent publication US20150132277A1 (Scripps Research, published 2015).

The chains are these.
B1: wild-type (WT) human mini-YRS (N-terminal fragment of human tyrosyl-tRNA synthetase) (enzyme)
chain: MGDAPSPEEKLHLITRNLQEVLGEEKLKEILKERELKIYWGTATTGKPHVAYFVPMSKIADFLKAGCEVTILFADLHAYLDNMKAPWELLELRVSYYENVIKAMLESIGVPLEKLKFIKGTDYQLSKEYTLDVYRLSSVVTQHDSKKAGAEVVKQVEHPLLSGLLYPGLQALDEEYLKVDAQFGGIDQRKIFTFAEKYLPALGYSKRVHLMNPMVPGLTGSKMSSSEEESKIDLLDRKEDVKKKLKKAFCEPGNVENNGVLSFIKHVLFPLKSEFVILRDEKWGGNKTYTAYVDLEKDFAAEVVHPGDLKNSVEVALNKLLDPIREKFNTPALKKLASAAYPDPSKQKPMAKGPAKNSEPEEVI
notes: In monomer-dimer equilibrium; also called WT mini-YRS; mini-tyrosyl tRNA synthetase
B2: non-associating monomeric Δ159-161 variant of mini-YRS (enzyme)
chain: MGDAPSPEEKLHLITRNLQEVLGEEKLKEILKERELKIYWGTATTGKPHVAYFVPMSKIADFLKAGCEVTILFADLHAYLDNMKAPWELLELRVSYYENVIKAMLESIGVPLEKLKFIKGTDYQLSKEYTLDVYRLSSVVTQHDSKKAGAEVVKQVEHSGLLYPGLQALDEEYLKVDAQFGGIDQRKIFTFAEKYLPALGYSKRVHLMNPMVPGLTGSKMSSSEEESKIDLLDRKEDVKKKLKKAFCEPGNVENNGVLSFIKHVLFPLKSEFVILRDEKWGGNKTYTAYVDLEKDFAAEVVHPGDLKNSVEVALNKLLDPIREKFNTPALKKLASAAYPDPSKQKPMAKGPAKNSEPEEVI
notes: also called the monomer
B3: Flavo-KRS (70-584) with T285C mutation (enzyme)
chain: SVDPNQYYKIRSQAIHQLKVNGEDPYPHKFHVDISLTDFIQKYSHLQPGDHLTDITLKVAGRIHAKRASGGKLIFYDLRGEGVKLQVMANSRNYKSEEEFIHINNKLRRGDIIGVQGNPGKTKKGELSIIPYEITLLSPCLHMLPHLHFGLKDKETRYRQRYLDLILNDFVRQKFIIRSKIITYIRSFLDELGFLEIETPMMNIIPGGAVAKPFICYHNELDMNLYMRIAPELYHKMLVVGNMGLFYGSSTCYTEMAAEKIRDIIGPELVTLHNLKDDSPKLMEQYDVLILGIPTWDFGEIQEDWEAVWDQLDDLNLEGKIVALYGLGDQLGYGEWFLDALGMLHDKLSTKGVKFVGYWPTEGYEFTSPKPVIADGQLFVGLALDETNQYDLSDERIQSWCEQILNEMARVYEIGRQFRNEGIDLTHNPEFTTCEFYMAYADYHDLMEITEKMVSGMVKHITGSYKVTYHPDGPEGQAYDVDFTPPFRRINMVEELEKALGMKLPETNLFETEETRKILDDICVAKAVECPPPRTTARLLDKLVGEFLEVTCINPTFICDHPQIMSPLAKWHRSKEGLTERFELFVMKKEICNAYTELNDPMRQRQLFEEQAKAKAAGDDEAMFIDENFCTALEYGLPPTAGWGMGIDRVAMFLTDSNNIKEVLLFPAMKPEDKKENVATAGHHHHHH
notes: also called T285C Flavo-KRS
B4: truncated human KRS (residues 70-584 of full-length lysyl-tRNA synthetase) with C-terminal 6xHis tag (enzyme)
chain: not shown
notes: Homodimer (alpha2) in solution; also called native human KRS (70-584); native KRS
B5: F260EY201EI278E T2-WRS variant (stable monomer) (enzyme)
chain: SAKGIDYDKLIVRFGSSKIDKELINRIERATGQRPHHFLRRGIFFSHRDMNQVLDAYENKKPFYLYTGRGPSSEAMHVGHLIPFIFTKWLQDVFNVPLVIQMTDDEKELWKDLTLDQAYSYAVENAKDIIACGFDINKTFIFSDLDYMGMSSGFYKNVVKIQKHVTENQVKGIFGFTDSDCIGKESFPAIQAAPSFSNSFPQIFRDRTDIQCLIPCAIDQDPYFRMTRDVAPRIGYPKPALLHSTFFPALQGAQTKMSASDPNSSIFLTDTAKQIKTKVNKHAFSGGRDTIEEHRQFGGNCDVDVSFMYLTFFLEDDDKLEQIRKDYTSGAMLTGELKKALIEVLQPLIAEHQARRKEVTDEIVKEFMTPRKLSFDFQHHHHHH
notes: Residue numbers of the mutations are those of full-length WRS; also called monomer T2-WRS; T2-WRS (F260EY201EI278E)
B6: human T2-WRS (residues 94-471 of full-length tryptophanyl-tRNA synthetase) with C-terminal His6 tag (enzyme)
chain: B5 chain with E108Y, E167F, E185I
notes: In monomer-dimer equilibrium; also called WT T2-WRS; WT T2-TrpRS
B7: VE-Cadherin extracellular domain EC1 (residues 48-155 of full-length VE-Cadherin), tag-free (other)
chain: DWIWNQMHIDEEKNTSLPHHVGKIKSSVSRKNAKYLLKGEYVGKVFRVDAETGDVFAIERLDRENISEYHLTAVIVDKDTGENLETPSSFTIKVHDVNDNWPVFTHRL
notes: Expressed as a GST fusion; also called VE-EC1; VE-Cadherin EC1 domain
B8: native human KRS (70-584) with T285C mutation (enzyme)
chain: not shown
modifications: disulfide between Cys 285 of the two subunits in the absence of DTT
notes: also called native KRST285C

Data set [1] deals with the molecule itself. The experiment in a line: gel chromatography; dimer-monomer equilibrium, reference Δ159-161 mini-YRS.
Experimental: (§1) Each protein sample (200 μl of 20 μM) was injected to Superdex 200 chromatography column (GE Healthcare, 10/300GL) in PBS containing 5 mM β-mercaptoethanol. The column was then calibrated by standard proteins. […] To determine the dissociation constant for dimer-monomer equilibrium, gel chromatography was carried out as a function of protein concentration.
Data set [2] deals with the molecule itself. The experiment in a line: gel chromatography with immunoblotting of fractions (YRS polyclonal antibody); dimer-monomer equilibrium. (In general: In western blotting, separated proteins are transferred to a membrane and probed.)
Experimental: as §1
Data set [3] deals with the molecule itself. The experiment in a line: gel filtration chromatography as a function of protein concentration; dimer-monomer equilibrium. On the technique in general: In gel filtration, larger molecules generally elute earlier.
Experimental: as §1
Data set [4] deals with the molecule itself. The experiment in a line: disulfide crosslinking across the dimer interface, SDS-PAGE with and without DTT.
Experimental: All proteins were expressed and purified as mentioned above, except that no beta-mercaptoethanol was added. The purified proteins were diluted to 1 mg/ml in 25 mM HEPES (pH7.5, 150 mM NaCl) and incubated for 15 minutes at 4° C. with or without 10 mM DTT (dithiothreitol). Proteins samples (10 μl) were mixed with an equal amount of 2× loading buffer (without reducing reagent) and boiled for 1 min before loading onto a SDS-PAGE gel.
Data set [5] deals with the molecule itself. The experiment in a line: Superdex 200 gel filtration, 0.5-2 µM, self-association.
Experimental: E. coli Flavodoxin was inserted at the position of G310 on the peripheral region of the KRS dimer interface. The linker was kept short to reduce the potential structural flexibility. […] All proteins were loaded at a concentration range of 0.5-2 μM. […] BSA is bovine serum albumin.
The peak fractions were analyzed by SDS-PAGE and visualized by Coomassie blue staining.
Data set [6] addresses B7. Description: SPR (Biacore), T2-WRS variant amine-coupled to CM5 chip, EC1 domain in flow, 0.1 mM ZnCl2, kinetic titration fitting; monomer F260EY201EI278E T2-WRS on the chip, EC1 in flow.
Data set [7] deals with the molecule itself. The experiment in a line: size exclusion chromatography, 100 nM to 10 uM; percentage of dimers against concentration; dimer-monomer dissociation constant.
Data set [8] deals with the molecule itself. The experiment in a line: size exclusion chromatography, percent dimer plotted against protein concentration; dimer-monomer dissociation constant.
Data set [9] deals with B6. Description: SPR (Biacore), T2-WRS amine-coupled to CM5 chip, EC1 domain in flow, 0.1 mM ZnCl2, kinetic titration fitting; WT T2-WRS on the chip, EC1 in flow. (Surface plasmon resonance follows binding to a sensor surface in real time, without labels.)

Where a chain is given by its changes, count along the chain named. Names and notes keep the numbering of the source.

As to B1, the “fold lower dimer-monomer dissociation constant than Δ159-161” value in [1] is around 1000 fold. In data set [2], this molecule had a Kd of around 100 nM. As to B2, the Kd in [3] is around 100000 nM. On to B3, for which the binding result in data set [4] was “no binding”. For the molecule B4, the binding result in data set [5] is listed as “binds”. In the case of B5, in data set [6], the Kd was determined as 1340 nM. B6: the Kd turned out to be 437 nM in data set [7] and 472 nM in [8].

Regarding B7, in data set [9], the equilibrium dissociation constant (Kd) is 1520 nM.

For the molecule B8, the binding result in data set [4] was “binds”.

One may read the Kd as the constant that tells how readily two partners part at equilibrium. Lower therefore signals a tighter complex.
